For one series, the system named is AncSZ. Put plainly: phosphorylation enrichment, bacterial display (enrichment ratio); higher = better substrate or ligand; peptides without Tyr show the background.
In a further series the target is EPHB1 (UniProt P54762). The series is described as above.
The target in a further series is EPHB2 (UniProt P29323). The series is described as above.
Another series has as its target FGFR1 (UniProt P11362). The description is as above.
The target of another series is FGFR3 (UniProt P22607). The description is as above.
A further series relates to Fer (mouse). Described as above.
For the next series, the target named is Fes (UniProt P07332). The series is described as above.
The next series addresses Fyn (UniProt P06241). Described as above.
A further series has as its target Hck (UniProt P08631). Described as above.
The target in another series is Jak2 (UniProt O60674). Described as above.
The next series concerns the target MERTK (UniProt Q12866). The series is described as above.
For another series, the system named is c-Abl (mouse). Described as above.
In the next series the test system is c-Src. The description is as above.
Another series addresses Grb2 SH2 (UniProt P62993). Put plainly: SH2 binding enrichment of the phosphorylated peptide, bacterial display (enrichment ratio); higher = better substrate or ligand; peptides without Tyr show the background.
In the next series the target is SHP2-C SH2. The description is as above.
For a further series, the target named is c-Src SH2. Described as above.
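For SH2 binding enrichment of the phosphorylated peptide, bacterial display in this document: peptide library displayed on the E. coli surface as eCPX fusions, selected cells deep-sequenced, score is each peptide's frequency after selection divided by its frequency in the input.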
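For phosphorylation enrichment, bacterial display in this document: 11-residue human phosphosite peptides and single-mutation variants displayed on the E. coli surface, counted by deep sequencing, each peptide's frequency after selection divided by its frequency in the unselected input library; frequency after pTyr selection over input frequency; kinase dosed for 20-30% of maximal phosphorylation in three min.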

Chain of Jak2 (O60674 whole entry, looked up): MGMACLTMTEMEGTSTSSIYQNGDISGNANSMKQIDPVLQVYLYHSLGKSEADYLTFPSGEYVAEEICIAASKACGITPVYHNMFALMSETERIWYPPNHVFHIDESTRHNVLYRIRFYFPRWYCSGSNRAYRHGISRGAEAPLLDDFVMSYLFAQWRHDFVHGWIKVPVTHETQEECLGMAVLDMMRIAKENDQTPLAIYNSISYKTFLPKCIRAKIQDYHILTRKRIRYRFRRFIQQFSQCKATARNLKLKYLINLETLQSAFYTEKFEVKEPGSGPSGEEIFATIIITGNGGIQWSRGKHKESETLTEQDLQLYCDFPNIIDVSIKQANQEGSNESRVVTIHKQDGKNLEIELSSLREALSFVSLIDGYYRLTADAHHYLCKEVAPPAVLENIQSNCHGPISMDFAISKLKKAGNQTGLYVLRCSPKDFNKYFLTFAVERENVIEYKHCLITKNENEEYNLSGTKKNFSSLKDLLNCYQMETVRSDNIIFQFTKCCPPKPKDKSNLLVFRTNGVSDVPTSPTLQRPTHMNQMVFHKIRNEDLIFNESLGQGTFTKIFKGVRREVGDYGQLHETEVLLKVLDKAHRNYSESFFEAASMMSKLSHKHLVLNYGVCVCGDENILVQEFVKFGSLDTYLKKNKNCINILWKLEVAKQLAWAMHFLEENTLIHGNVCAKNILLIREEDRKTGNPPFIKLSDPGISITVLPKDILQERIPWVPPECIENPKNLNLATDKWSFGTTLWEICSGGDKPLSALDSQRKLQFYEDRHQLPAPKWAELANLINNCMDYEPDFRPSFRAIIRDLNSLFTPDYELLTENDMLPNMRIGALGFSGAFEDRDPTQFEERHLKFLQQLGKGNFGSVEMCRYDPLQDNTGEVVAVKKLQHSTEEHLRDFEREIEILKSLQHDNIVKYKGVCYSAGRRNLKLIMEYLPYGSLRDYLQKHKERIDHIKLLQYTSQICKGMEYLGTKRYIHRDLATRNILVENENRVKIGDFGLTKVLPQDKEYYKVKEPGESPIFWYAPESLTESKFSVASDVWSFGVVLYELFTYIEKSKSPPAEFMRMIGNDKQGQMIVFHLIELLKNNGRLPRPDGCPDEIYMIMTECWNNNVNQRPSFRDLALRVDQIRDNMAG
Chain of MERTK (Q12866 whole entry, looked up): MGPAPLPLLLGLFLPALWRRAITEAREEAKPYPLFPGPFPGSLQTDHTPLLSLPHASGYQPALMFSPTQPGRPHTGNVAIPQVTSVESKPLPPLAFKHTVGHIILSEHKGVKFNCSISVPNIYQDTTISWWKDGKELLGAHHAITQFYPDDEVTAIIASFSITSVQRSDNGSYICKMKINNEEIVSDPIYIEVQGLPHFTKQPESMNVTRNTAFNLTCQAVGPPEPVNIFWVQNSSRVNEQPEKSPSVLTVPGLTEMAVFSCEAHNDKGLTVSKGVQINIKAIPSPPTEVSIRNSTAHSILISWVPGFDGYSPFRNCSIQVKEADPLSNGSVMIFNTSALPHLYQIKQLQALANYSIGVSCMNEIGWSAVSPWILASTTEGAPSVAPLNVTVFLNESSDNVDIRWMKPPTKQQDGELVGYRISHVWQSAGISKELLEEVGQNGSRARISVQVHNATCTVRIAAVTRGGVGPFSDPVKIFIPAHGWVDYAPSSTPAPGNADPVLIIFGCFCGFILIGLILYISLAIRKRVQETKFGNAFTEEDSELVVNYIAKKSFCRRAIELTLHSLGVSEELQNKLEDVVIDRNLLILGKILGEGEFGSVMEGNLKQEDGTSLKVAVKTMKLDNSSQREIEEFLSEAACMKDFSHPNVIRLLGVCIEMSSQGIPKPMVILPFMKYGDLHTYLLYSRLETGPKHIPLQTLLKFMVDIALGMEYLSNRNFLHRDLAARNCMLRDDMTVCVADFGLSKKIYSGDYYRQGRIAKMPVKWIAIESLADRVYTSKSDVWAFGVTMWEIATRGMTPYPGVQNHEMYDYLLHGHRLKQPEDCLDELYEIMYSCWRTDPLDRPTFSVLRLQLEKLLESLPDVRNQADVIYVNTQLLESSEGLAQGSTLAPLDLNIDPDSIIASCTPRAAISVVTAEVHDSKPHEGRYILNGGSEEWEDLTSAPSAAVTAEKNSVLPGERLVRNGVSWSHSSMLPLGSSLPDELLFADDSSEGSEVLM
Chain of EPHB2 (P29323 whole entry, looked up): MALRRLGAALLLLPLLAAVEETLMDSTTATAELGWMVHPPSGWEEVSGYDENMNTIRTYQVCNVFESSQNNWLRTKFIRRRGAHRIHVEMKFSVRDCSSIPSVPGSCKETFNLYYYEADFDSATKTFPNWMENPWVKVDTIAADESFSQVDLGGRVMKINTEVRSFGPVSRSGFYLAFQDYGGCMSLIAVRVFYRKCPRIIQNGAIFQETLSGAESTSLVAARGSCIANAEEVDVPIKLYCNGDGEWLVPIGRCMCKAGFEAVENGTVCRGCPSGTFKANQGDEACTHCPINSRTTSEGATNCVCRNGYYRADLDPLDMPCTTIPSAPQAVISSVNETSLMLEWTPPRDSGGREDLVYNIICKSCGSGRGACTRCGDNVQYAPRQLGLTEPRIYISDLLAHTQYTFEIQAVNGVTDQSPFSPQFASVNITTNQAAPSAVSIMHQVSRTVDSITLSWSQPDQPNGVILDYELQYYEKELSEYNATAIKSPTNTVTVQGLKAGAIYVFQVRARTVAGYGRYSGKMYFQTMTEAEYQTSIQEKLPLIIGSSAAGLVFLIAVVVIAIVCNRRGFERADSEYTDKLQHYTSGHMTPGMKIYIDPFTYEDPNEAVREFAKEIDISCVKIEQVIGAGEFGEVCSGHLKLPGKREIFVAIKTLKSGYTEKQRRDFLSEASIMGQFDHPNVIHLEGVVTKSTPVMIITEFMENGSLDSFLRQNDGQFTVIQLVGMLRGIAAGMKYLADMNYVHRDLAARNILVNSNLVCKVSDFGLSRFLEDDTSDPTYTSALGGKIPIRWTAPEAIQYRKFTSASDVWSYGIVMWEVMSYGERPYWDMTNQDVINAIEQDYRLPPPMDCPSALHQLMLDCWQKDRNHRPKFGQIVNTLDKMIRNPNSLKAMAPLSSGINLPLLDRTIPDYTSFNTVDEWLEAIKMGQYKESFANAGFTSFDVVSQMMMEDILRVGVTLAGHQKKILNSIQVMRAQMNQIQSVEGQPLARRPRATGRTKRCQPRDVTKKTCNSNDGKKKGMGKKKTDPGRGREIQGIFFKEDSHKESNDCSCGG
Chain of FGFR1 (P11362 whole entry, looked up): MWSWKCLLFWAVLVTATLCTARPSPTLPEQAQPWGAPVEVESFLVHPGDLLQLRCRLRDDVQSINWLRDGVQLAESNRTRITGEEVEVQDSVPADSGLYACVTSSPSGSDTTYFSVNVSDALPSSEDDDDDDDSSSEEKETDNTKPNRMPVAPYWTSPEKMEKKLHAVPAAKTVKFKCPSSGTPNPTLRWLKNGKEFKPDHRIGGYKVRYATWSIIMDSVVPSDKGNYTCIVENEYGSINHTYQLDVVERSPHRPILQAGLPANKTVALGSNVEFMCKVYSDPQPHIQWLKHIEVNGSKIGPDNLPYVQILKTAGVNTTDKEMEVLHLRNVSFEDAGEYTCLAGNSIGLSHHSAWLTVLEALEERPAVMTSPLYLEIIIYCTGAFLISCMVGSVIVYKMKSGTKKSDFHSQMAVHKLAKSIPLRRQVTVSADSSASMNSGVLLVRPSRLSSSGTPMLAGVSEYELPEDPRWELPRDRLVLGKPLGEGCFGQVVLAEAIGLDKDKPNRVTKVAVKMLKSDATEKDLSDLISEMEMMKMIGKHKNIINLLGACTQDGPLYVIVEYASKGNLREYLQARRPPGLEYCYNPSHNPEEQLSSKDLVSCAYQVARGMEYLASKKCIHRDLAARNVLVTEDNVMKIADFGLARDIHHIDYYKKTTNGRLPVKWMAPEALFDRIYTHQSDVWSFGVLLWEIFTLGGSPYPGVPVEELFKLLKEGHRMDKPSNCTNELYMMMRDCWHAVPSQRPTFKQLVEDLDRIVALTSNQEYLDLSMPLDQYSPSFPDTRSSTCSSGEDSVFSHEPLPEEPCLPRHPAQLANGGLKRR
Chain of Fyn (P06241 whole entry, looked up): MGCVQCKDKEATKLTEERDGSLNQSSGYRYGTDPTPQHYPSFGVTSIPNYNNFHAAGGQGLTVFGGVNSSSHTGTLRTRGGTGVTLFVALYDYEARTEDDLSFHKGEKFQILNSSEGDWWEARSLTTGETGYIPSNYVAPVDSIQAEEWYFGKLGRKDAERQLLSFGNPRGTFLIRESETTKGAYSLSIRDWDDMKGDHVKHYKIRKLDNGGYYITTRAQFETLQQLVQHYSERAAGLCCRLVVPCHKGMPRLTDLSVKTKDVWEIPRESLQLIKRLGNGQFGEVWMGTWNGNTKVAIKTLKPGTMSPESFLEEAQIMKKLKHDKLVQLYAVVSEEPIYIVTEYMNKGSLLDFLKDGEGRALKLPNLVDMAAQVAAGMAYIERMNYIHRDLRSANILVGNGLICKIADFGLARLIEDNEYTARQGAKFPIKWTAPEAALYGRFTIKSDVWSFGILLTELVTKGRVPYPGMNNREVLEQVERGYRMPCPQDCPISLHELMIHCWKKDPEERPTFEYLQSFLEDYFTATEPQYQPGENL
Chain of Grb2 SH2 (P62993 whole entry, looked up): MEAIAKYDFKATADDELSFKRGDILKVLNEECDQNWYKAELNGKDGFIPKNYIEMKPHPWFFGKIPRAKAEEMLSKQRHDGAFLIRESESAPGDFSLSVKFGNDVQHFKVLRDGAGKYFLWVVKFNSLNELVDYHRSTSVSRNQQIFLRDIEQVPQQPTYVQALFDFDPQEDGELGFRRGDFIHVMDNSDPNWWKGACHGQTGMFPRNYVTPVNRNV

PDNEPYIFKVF [PIK3AP1_Y553]: the phosphorylation enrichment in the series with AncSZ turned out to be 2.37; in the series with EPHB1, 0.684; with EPHB2, 0.787; with FGFR1 it was 1.16; in the series with FGFR3, 1.5; in the series on Fer (mouse), 0.647. Further, the phosphorylation enrichment was 2.25 in the series with Fes; 0.846 in the series with Fyn; 0.758 in the series with Hck; 2.79 with Jak2; 0.725 in the series with MERTK; 1.19 in the series with c-Abl (mouse). Besides, in the series with c-Src, the phosphorylation enrichment is 1.05. Besides, the SH2 binding enrichment in the series with Grb2 SH2 turned out to be 1.1; with SHP2-C SH2, 1; in the series with c-Src SH2, 0.755.

On to PEADKYRLTFA [FGG_Y300_YF], for which the phosphorylation enrichment in the series with AncSZ is 1.05; with EPHB1, 0.887; with EPHB2 it was 0.697; in the series with FGFR1, 0.626; with FGFR3, 0.78; in the series on Fer (mouse), 0.546. In addition, the phosphorylation enrichment is 1.18 with Fes; 0.553 with Fyn; 0.76 with Hck; 1 in the series with Jak2; 0.451 in the series with MERTK; 0.918 in the series on c-Abl (mouse). Also, the phosphorylation enrichment in the series on c-Src came out at 0.568. In addition, the values for the SH2 binding enrichment in the series with Grb2 SH2, with SHP2-C SH2 and in the series with c-Src SH2 were 0.75, 0.673 and 0.475, respectively.

On to PELINCHQHNS [BTK_Y361_Y361C], for which the phosphorylation enrichment in the series with AncSZ was 0.938; with EPHB1, 0.676; in the series with EPHB2 it was 0.9; with FGFR1, 0.682; in the series with FGFR3 it was 0.7; with Fer (mouse), 0.56. Besides, the phosphorylation enrichment with Fes is 1.04; in the series with Fyn, 0.297; with Hck it was 0.544; with Jak2 it was 0.971; with MERTK, 0.712; in the series with c-Abl (mouse) it was 0.876. In addition, the phosphorylation enrichment with c-Src was found to be 0.69. Moreover, the figures for the SH2 binding enrichment with Grb2 SH2, with SHP2-C SH2 and with c-Src SH2 were 1.01, 0.919 and 0.641, respectively.

Take PELINYHQHNS [BTK_Y361]: the phosphorylation enrichment was determined as 0.981 with AncSZ; 0.666 with EPHB1; 0.769 in the series with EPHB2; 1.27 in the series with FGFR1; 1.02 in the series with FGFR3; 0.664 in the series on Fer (mouse). The phosphorylation enrichment with Fes was determined as 1.06; in the series with Fyn, 0.648; in the series with Hck, 0.69; with Jak2, 1; with MERTK it was 0.579; with c-Abl (mouse), 0.561. Further, the phosphorylation enrichment with c-Src came out at 0.68. Further, the SH2 binding enrichment with Grb2 SH2 turned out to be 1; with SHP2-C SH2, 0.767; with c-Src SH2, 0.466.

Take PESIPYRKFTT [NTRK1_Y701_L700P]: the phosphorylation enrichment in the series with AncSZ turned out to be 0.823; with EPHB1, 0.598; with EPHB2, 0.668; with FGFR1, 0.594; in the series with FGFR3, 0.936; in the series on Fer (mouse), 0.353. Also, the phosphorylation enrichment in the series with Fes was found to be 0.917; in the series with Fyn, 0.375; with Hck it was 0.721; with Jak2 it was 0.992; in the series with MERTK, 0.86; with c-Abl (mouse), 0.879. In addition, the phosphorylation enrichment in the series with c-Src is 0.485. Also, the SH2 binding enrichment with Grb2 SH2 came out at 0.747; with SHP2-C SH2, 0.507; in the series with c-Src SH2 it was 0.476.

For the sequence PESTLYRKFTT [NTRK1_Y701_I699T], the phosphorylation enrichment came to 1.01 in the series on AncSZ; 0.433 with EPHB1; 0.275 with EPHB2; 0.646 with FGFR1; 0.644 in the series with FGFR3; 0.448 in the series with Fer (mouse). The phosphorylation enrichment is 0.83 in the series with Fes; 0.347 with Fyn; 0.608 with Hck; 0.812 with Jak2; 0.399 with MERTK; 1.12 in the series with c-Abl (mouse). In the series with c-Src, the phosphorylation enrichment was 0.467. The SH2 binding enrichment with Grb2 SH2 was 0.879; with SHP2-C SH2, 0.538; with c-Src SH2 it was 0.444.

Turning to PEVRRYVLPLN [RPE65_Y368], the phosphorylation enrichment in the series with AncSZ was found to be 1.41; in the series with EPHB1, 1.3; with EPHB2 it was 0.811; in the series with FGFR1, 0.606; with FGFR3 it was 1.3; in the series on Fer (mouse), 0.893. The phosphorylation enrichment with Fes is 1.45; with Fyn, 0.597; with Hck it was 0.916; with Jak2 it was 1.2; with MERTK, 0.92; with c-Abl (mouse), 1.44. Further, the phosphorylation enrichment in the series on c-Src was found to be 0.804. The figures for the SH2 binding enrichment with Grb2 SH2, with SHP2-C SH2 and with c-Src SH2 were 0.807, 0.64 and 0.878, respectively.

Consider PFRSIYFSSPK [MPG_Y75_YF], for which the phosphorylation enrichment in the series on AncSZ was 0.851; with EPHB1 it was 0.382; in the series with EPHB2, 0.571; with FGFR1, 0.599; in the series with FGFR3, 0.809; in the series with Fer (mouse), 0.595. Further, the phosphorylation enrichment with Fes was determined as 0.666; in the series with Fyn it was 0.658; with Hck it was 1.11; in the series with Jak2 it was 0.553; in the series with MERTK, 0.463; in the series with c-Abl (mouse), 0.398. For the same sequence, the phosphorylation enrichment in the series on c-Src came out at 0.669. Moreover, the SH2 binding enrichment was 0.843 in the series with Grb2 SH2, 0.565 with SHP2-C SH2 and 0.447 with c-Src SH2.

Source of the values: the supplement of paper PMC10065799, “High-throughput profiling of sequence recognition by tyrosine kinases and SH2 domains using bacterial peptide display” (eLife, 2023).
